# Experimental data taken from patent US20220249685A1, “ANTI-MESOTHELIN ANTIBODIES AND IMMUNOCONJUGATES THEREOF” (Silverback Therapeutics, Inc., priority 2019, published 2022).
# How the values were obtained:
# [1] = Tm of purified antibodies (Table 1); type: physicochemical; conditions: purified antibody
# Method: Six humanized heavy chains were co-transfected with 5 humanized light chains into the ExpiCHO expression system in a 30mL culture. The supernatant was analyzed via Octet to determine off rates and any that retained binding and contained less mouse sequence, were purified and further characterized. Clones 6 and 37 were selected for further optimization. An additional mutation in CDRH2, G55A, was introduced to reduce chemical modification of the neighboring Asparagine (N) residue. These humanized sequences are represented in SEQ ID NOs. 1-15.
# [2] = Analytical hydrophobic interaction chromatography (HIC) profile, incl. after 40° C. stress; type: physicochemical; conditions: TSKgel Butyl-NPR, ammonium sulfate
# [3] = tested on: huPBMCs in the presence of HEK-293 cells transfected with human MSLN; assay: TNFα production by huPBMCs with HEK-293 cells transfected with human MSLN; type: cell-based; conditions: overnight, AlphaLISA
# Method: Human Whole Blood was obtained from Bloodworks Northwest and collected in 10mL EDTA tubes. Human PBMCs were then isolated from the whole blood by Ficoll gradient centrifugation and resuspended in assay media (RPMI-1640 Medium supplemented with 10% Fetal Bovine Serum, 1 mM Sodium Pyruvate, 1× GlutaMAX-1, 1× Non-Essential Amino Acids, 10mM HEPES and 0.5% Penicillin/Streptomycin; all from Gibco). Tumor cells were removed from tissue culture flasks with HyQTASE (Hyclone), washed twice and resuspended in assay media.
# Human PBMCs isolated as described above were resuspended in assay media, and plated in 96-well flat bottom microtiter plates (125,000/well). MSLN-expressing HEK-293cells were then added (25,000/well) along with titrating concentrations of conjugated or unconjugated antibodies. Mock transfected HEK-293 cells were used as a negative control. After overnight culture, supernatants were harvested, and TNFα levels were determined by AlphaLISA.
substance,measurement,setting,value
"SS1: chimeric monoclonal anti-mesothelin antibody IgG/K; VH SEQ ID NO: 25, VL SEQ ID NO: 26",Tm ° C.,[1],69 °C
same,profile on an analytical HIC column,[2],multiple variant species
same,TNFα production from huPBMCs,[3],did not stimulate TNFα production
